Two molecules from publication PMC9629070 (Autophagy, 2022) can be followed below.

Common to all, as to test: pull-down
For one assay, the target named is GAPC2-His (Arabidopsis thaliana, UniProt Q9FX54 1-338).
The target in the next assay is GAPC1-His (Arabidopsis thaliana, UniProt P25858 1-338).
The target of the next assay is T1, GST-ATG6 (Arabidopsis thaliana, UniProt Q9M367 1-517).
T1 sequence (looked up): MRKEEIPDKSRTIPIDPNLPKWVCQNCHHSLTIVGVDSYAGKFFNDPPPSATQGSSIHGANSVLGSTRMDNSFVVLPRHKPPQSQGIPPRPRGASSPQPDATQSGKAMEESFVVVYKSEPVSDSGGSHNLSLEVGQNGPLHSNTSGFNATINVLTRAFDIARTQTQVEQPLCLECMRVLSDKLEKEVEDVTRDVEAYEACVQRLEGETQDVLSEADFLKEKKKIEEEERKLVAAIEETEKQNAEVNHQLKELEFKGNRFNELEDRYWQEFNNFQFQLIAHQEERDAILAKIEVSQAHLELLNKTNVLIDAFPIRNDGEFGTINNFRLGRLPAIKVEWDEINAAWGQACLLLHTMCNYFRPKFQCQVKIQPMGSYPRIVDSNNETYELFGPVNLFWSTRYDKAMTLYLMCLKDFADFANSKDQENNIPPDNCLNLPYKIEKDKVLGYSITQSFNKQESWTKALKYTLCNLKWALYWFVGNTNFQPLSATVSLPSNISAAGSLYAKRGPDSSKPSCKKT

Chain of GAPC2-His (Q9FX54 whole entry): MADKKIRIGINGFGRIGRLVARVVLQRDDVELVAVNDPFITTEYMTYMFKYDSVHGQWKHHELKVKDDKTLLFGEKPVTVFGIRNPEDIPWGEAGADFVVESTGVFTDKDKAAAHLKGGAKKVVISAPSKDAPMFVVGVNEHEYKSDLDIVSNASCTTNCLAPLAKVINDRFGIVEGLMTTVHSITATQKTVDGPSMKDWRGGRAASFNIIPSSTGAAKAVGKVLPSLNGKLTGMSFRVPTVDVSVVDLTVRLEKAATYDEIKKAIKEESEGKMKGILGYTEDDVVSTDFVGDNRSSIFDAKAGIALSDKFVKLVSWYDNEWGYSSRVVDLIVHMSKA
Chain of GAPC1-His (P25858 whole entry): as the sequence (Q9FX54 whole entry) above, with H61N, V65I, D68E, G92A, F98Y, S227A, M274L counted along it

B1: GST-ATG3 (natural protein, Arabidopsis thaliana, UniProt Q0WWQ1 1-313, looked up)
chain: MVLSQKLHEAFKGTVERITGPRTISAFKEKGVLSVSEFVLAGDNLVSKCPTWSWESGDASKRKPYLPSDKQFLITRNVPCLRRAASVAEDYEAAGGEVLVDDEDNDGWLATHGKPKDKGKEEDNLPSMDALDINEKNTIQSIPTYFGGEEDDDIPDMEEFDEADNVVENDPATLQSTYLVAHEPDDDNILRTRTYDLSITYDKYYQTPRVWLTGYDESRMLLQPELVMEDVSQDHARKTVTIEDHPHLPGKHASVHPCRHGAVMKKIIDVLMSRGVEPEVDKYLFLFLKFMASVIPTIEYDYTMDFDLGSSST
Consider B1, for which the binding result with GAPC2-His and with GAPC1-His was “binds” in each case.

B2: PGK3-His (natural protein, Arabidopsis thaliana, UniProt Q9SAJ4 1-401, looked up)
chain: MATKRSVGTLKEADLKGKSVFVRVDLNVPLDDNSNITDDTRIRAAVPTIKYLMGNGSRVVLCSHLGRPKGVTPKYSLKPLVPRLSELLGVEVVMANDSIGEEVQKLVAGLPEGGVLLLENVRFYAEEEKNDPEFAKKLAALADVYVNDAFGTAHRAHASTEGVAKFLKPSVAGFLMQKELDYLVGAVANPKKPFAAIVGGSKVSTKIGVIESLLNTVDILLLGGGMIFTFYKAQGLSVGSSLVEEDKLDLAKSLMEKAKAKGVSLLLPTDVVIADKFAPDANSKIVPATAIPDGWMGLDIGPDSIKTFSEALDTTKTIIWNGPMGVFEFDKFAAGTEAVAKQLAELSGKGVTTIIGGGDSVAAVEKVGLADKMSHISTGGGASLELLEGKPLPGVLALDEA
For B2, the binding result in the assay with GST-ATG6 is listed as “binds”.
